This experiment concerns the target CHIKV pE2-E1 (E3-E2-E1) of the CHIKV-LR strain (Chikungunya virus (strain La Reunion …, UniProt Q8JUX5)). In words: SPR.

Chain of CHIKV pE2-E1 (E3-E2-E1) of the CHIKV-LR strain (Chikungunya virus (Q8JUX5 whole entry, looked up): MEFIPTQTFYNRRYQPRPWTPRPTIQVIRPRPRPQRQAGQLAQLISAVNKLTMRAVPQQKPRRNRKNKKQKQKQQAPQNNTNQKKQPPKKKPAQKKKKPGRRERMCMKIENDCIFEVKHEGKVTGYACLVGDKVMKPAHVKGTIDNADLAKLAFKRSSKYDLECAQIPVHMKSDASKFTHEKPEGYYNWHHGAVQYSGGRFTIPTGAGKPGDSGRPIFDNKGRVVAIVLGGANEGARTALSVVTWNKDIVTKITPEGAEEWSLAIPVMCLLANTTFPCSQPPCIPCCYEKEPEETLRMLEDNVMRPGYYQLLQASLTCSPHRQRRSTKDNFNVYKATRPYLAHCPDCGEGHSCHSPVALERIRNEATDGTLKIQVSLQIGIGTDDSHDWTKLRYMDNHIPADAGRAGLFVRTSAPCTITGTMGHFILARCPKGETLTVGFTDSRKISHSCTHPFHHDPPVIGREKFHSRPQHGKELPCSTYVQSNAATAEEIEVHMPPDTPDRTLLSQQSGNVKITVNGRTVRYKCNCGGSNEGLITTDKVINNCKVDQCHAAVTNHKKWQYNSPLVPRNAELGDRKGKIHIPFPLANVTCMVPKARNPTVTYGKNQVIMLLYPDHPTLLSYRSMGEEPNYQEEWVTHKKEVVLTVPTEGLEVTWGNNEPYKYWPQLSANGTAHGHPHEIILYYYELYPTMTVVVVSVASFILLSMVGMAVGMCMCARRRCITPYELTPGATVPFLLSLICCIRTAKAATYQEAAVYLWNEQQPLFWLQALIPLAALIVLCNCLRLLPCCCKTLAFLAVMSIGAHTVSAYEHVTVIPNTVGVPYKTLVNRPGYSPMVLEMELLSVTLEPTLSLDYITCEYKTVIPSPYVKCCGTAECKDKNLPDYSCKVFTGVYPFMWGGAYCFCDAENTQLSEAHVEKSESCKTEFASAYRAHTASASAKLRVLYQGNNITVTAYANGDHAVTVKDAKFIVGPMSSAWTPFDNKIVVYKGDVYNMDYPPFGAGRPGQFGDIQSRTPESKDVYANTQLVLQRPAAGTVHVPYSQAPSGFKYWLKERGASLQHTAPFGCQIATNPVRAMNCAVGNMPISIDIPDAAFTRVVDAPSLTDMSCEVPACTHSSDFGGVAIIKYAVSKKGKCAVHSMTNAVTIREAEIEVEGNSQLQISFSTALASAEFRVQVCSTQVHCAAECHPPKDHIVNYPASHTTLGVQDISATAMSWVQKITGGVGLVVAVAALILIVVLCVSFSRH

B1: chimeric mouse-human CHK-152 N297Q (aglycosyl variant) (antibody, V domains shown)
VH: QVQLQQPGAALVKPGASAMMSCKASGYTFTSYWITWVKQRPGQGLEWIGDIYPGTGRTIYKEKFKTKATLTVDTSSSTAFMQLNSLTSEDSAVYYCARGYGSPYYALDYWGQGTSVTVSS
VL: DIVLTQSPASLAVSQGQRATISCKASQSVDYDGDSYVNWYQQKPGQSPKLLIYDASNLESGIPARFSGSGSGTDFTLNIHPVEEEDVATYYCQESNEDPRTFGGGTKLEIK
As to B1, the Kd (usually a measure of binding affinity in units of concentration) is 3.9 nM and the dissociation rate constant (koff) (commonly a measure of how fast the partners let go of each other) amounted to 0.00051 s⁻¹.

B2: chimeric mouse-human CHK-152 (antibody, V domains shown)
VH: QVQLQQPGAALVKPGASAMMSCKASGYTFTSYWITWVKQRPGQGLEWIGDIYPGTGRTIYKEKFKTKATLTVDTSSSTAFMQLNSLTSEDSAVYYCARGYGSPYYALDYWGQGTSVTVSS
VL: DIVLTQSPASLAVSQGQRATISCKASQSVDYDGDSYVNWYQQKPGQSPKLLIYDASNLESGIPARFSGSGSGTDFTLNIHPVEEEDVATYYCQESNEDPRTFGGGTKLEIK
As to B2, the Kd worked out at 3.1 nM and the off-rate constant (koff) was determined as 0.0004 s⁻¹.

The values above are taken from publication PMC3630103 (2013).
